Where two headings read alike, the source gives them in different places.
Experiments:
[1] = human, in vivo; cited from earlier work
[2] = system: rabbits; details: cited from earlier work
[3] = system: serum proteins; details: cited from earlier work
[4] = system: rats; details: cited from earlier work
[5] = system: patients treated with allopurinol; details: cited from earlier work
[6] = system: lupus nephritis patients; details: in vivo; cited from earlier work
[7] = KXX exposure (AUC) by patient weight and age; type: in vivo, human
From the text: In some embodiments, heavier and/or younger patients may have a higher incidence of anti-KXX antibodies, or may have higher anti-KXX drug titers, than lighter and/or older patients. In other embodiments, lighter and/or older patients may have higher drug loading of KXX than heavier and/or younger patients. In some embodiments, lighter patients may have higher exposures of KXX than heavier patients. For example, in some embodiments, lighter patients may have greater than 2-fold exposure to KXX than heavier patients. In some embodiments, lower drug levels in a patient may result in anti-KXX antibodies. […] In other embodiments, older patients may have higher exposures of KXX than younger patients. For example, in some embodiments, older patients may have greater than 2-fold exposure to KXX than younger patients. […] Thus, in some embodiments, additional 8-mg doses of KXX may be beneficial for younger and/or heavier patients. In other embodiments, younger and/or heavier patients may benefit from one or more loading doses of 16 mg of KXX.

[8] = system: patients; details: bi-weekly or every 4 weeks for up to 30 months; 149 patients; cited from earlier work
[9] = diluted in infusion bags, cited from earlier work
[10] = system: patients receiving pegloticase; details: cited from earlier work; for patients maintaining a response to pegloticase: another study
[11] = system: hyperuricemic patients (SUA >8 mg/dL) with symptomatic gout; details: cited from earlier work; for incidence of infusion-related reactions: pegloticase 8 mg
[12] = system: subjects with refractory gout; details: doses of 4 to 12 mg; from 11.1±0.6 mg/dL before; cited from earlier work
[13] = system: patients treated with pegloticase; details: cited from earlier work

Compound: COc1c(C)c2c(c(O)c1C/C=C(\C)CCC(=O)OCCN1CCOCC1)C(=O)OC2 [MMF, 2-morpholinoethyl (E)-6-(1,3-dihydro4-hydroxy-6-methoxy-7-methyl-3-oxo-5-isobenzofuranyl)-4-methyl-4-hexenoate]
- time after which not detectable in urine [1]: 8 h
- teratogenicity [2]: teratogenic effects
- bound to serum proteins [3]: 30%
- teratogenicity [4]: teratogenic effects

Compound: Oc1ncnc2[nH]ncc12 [allopurinol]
- patients developing allergic reactions [5]: Approximately 2%
- severe hypersensitivity syndrome [5]: about 0.4%

Compound: Sc1ncnc2nc[nH]c12 [mercaptopurine, 6-mercaptopurine]
- time after which not detectable in urine [1]: 8 h
- bound to serum proteins [3]: 30%

Compound: rituximab: biologic given with MMF and glucocorticoids in a lupus nephritis trial
- rate of serious infections [6]: 16.6 /100 patient-years

Compound: pegloticase
- mean area under the curve (AUC) ([7]; heavier patients): about 4.04 mg/L
- exposure, lighter versus heavier patients ([7]; human, in vivo): greater than 2 fold
- exposure, older versus younger patients ([7]; human, in vivo): greater than 2 fold
- mean area under the curve (AUC) ([7]; lighter patients): about 8.92 mg/L
- mean area AUC ([7]; older patients): about 8.86 mg/L
- mean area AUC ([7]; younger patients): about 3.93 mg/L
- long-term safety [8]: No new safety signals were observed
- time stable after dilution ([9]; 2° C. to 8° C.): 4 h
- time stable after dilution ([9]; room temperature (20° C. to 25° C.)): 4 h
- patients with titers exceeding 1:2430 who developed IRs ([10]; 31 of 52 patients): 60%
- patients maintaining a response to pegloticase ([10]; antibody titer exceeding 1:2430 at any time, 7 of 65): 10.8%
- patients maintaining a response to pegloticase ([10]; never had an antibody titer above 1:2430, 58/65): 89.2%
- patients who developed high titer anti-pegloticase antibodies and subsequently lost response ([10]; one study, 69 of 169 patients): 41%
- patients with IRs in whom loss of response (return to SUA >6 mg/dL) preceded the first IR ([11]; 20/21 patients): 95%
- incidence of infusion-related reactions ([11]; biweekly dosing): 26%
- incidence of infusion-related reactions ([11]; every-4-week dosing regimen): 40%
- pUAc after dosing, mean±SD [12]: 1.0±0.5 mg/dL
- other uncommon symptoms, share of patients ([13]; ecchymoses, sore throat, constipation, chest pain, vomiting): at least 5%
- most common adverse reactions, share of treated patients ([13]; gout flares, infusion reactions, nausea, contusion or ecchymosis, nasopharyngitis, constipation, chest pain, anaphylaxis, vomiting): ≥ 5%
- anaphylaxis, frequency ([13]; human, in vivo): 6.5%
- infusion reactions, share of patients ([13]; pegloticase 8 mg every 2 weeks): 26%

— US20240033331A1, “REDUCING IMMUNOGENICITY TO PEGLOTICASE” (Horizon Therapeutics USA, Inc., priority 2019, published 2024)
